Experiments:
[1] = biological target: T1, HIF-1α, endogenous (UniProt Q16665 1-826); test: co-immunoprecipitation of endogenous proteins from HEK 293T cell extracts (FIG. 8A)
T1 construct: also called HIF-1alpha; hypoxia-inducible factor 1 alpha
Description: To study endogenous WSB1/pVHL binding, cells were treated with or without 10 μM MG 132 (Sigma) for 2 hours. Cells were lysed by sonication in NETN buffer (20 mM Tris-HCl, pH 8.0, 100 mM NaCl, 1 mM EDTA, 0.5% Nonidet P-40) containing 50 mM b-glycerophosphate, 10 mM NaF, and […] each of pepstatin A and aprotinin, freshly supplemented with protease inhibitor cocktail (Roche). Prior to immunoprecipitation, protein A-bound Agarose beads were incubated overnight with pVHL antibody (Cell Signaling, #2738), WSB1 antibody (Abcam, ab68953; Sigma, HPA003293; Proteintech, 1166-1-AP), or HIF-1α antibody (Abcam, ab51608) in PBS with 5% BSA at 4° C. ab68953 was used for most experiments (HPA003293 for IHC). Extracts were added before immunoprecipitation with protein-A agarose at 4° C. for 4 hours. After three washings in binding buffer, co-purified proteins were analyzed by Western blotting.

[2] = biological target: T2, HA-tagged HIF-1α (UniProt Q16665 1-826); test: co-immunoprecipitation of exogenous proteins from HEK 293T cell extracts (FIG. 9A)
T2 construct: Plasmid from Addgene; also called exogenous HIF-1α; not shown: HA tag
T2 sequence (Q16665 whole entry): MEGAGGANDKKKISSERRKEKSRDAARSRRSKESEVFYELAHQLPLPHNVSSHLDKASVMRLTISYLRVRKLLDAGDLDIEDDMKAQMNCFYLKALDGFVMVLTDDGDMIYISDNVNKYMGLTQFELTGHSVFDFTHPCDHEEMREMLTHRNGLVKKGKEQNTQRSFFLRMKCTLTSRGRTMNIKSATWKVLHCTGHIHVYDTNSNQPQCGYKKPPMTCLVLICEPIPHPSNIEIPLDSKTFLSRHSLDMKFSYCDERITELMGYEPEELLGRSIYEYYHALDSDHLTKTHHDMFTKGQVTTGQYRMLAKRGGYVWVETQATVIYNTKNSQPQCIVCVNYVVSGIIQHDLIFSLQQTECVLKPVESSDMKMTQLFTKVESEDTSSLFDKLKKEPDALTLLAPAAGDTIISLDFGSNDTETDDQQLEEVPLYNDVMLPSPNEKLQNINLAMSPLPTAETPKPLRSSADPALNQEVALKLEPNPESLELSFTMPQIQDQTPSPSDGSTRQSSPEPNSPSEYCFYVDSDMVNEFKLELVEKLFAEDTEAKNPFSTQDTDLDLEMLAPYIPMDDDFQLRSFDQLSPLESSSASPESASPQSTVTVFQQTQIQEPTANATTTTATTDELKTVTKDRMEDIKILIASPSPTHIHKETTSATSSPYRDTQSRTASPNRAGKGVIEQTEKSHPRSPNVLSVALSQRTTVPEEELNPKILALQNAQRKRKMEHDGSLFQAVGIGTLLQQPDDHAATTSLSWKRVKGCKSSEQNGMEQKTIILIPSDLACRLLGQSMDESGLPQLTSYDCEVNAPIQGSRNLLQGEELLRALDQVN

T1 sequence (Q16665 whole entry): as above

binding result [1]	binding result [2]	Binder
no binding		WD repeat and SOCS box-containing protein 1 (WSB1), endogenous (enzyme, also called WBS1) MASFPPRVNEKEIVRLRTIGELLAPAAPFDKKCGRENWTVAFAPDGSYFAWSQGHRTVKLVPWSQCLQNFLLHGTKNVTNSSSLRLPRQNSDGGQKNKPREHIIDCGDIVWSLAFGSSVPEKQSRCVNIEWHRFRFGQDQLLLATGLNNGRIKIWDVYTGKLLLNLVDHTEVVRDLTFAPDGSLILVSASRDKTLRVWDLKDDGNMMKVLRGHQNWVYSCAFSPDSSMLCSVGASKAVFLWNMDKYTMIRKLEGHHHDVVACDFSPDGALLATASYDTRVYIWDPHNGDILMEFGHLFPPPTPIFAGGANDRWVRSVSFSHDGLHVASLADDKMVRFWRIDEDYPVQVAPLSNGLCCAFSTDGSVLAAGTHDGSVYFWATPRQVPSLQHLCRMSIRRVMPTQEVQELPIPSKLLEFLSYRI
	no binding	Myc-tagged WSB1 (WT) (enzyme, Plasmid obtained from Dr. Cheol Yong Choi; also called Myc-WSB1; WSB1-Myc; not shown: Myc tag) MASFPPRVNEKEIVRLRTIGELLAPAAPFDKKCGRENWTVAFAPDGSYFAWSQGHRTVKLVPWSQCLQNFLLHGTKNVTNSSSLRLPRQNSDGGQKNKPREHIIDCGDIVWSLAFGSSVPEKQSRCVNIEWHRFRFGQDQLLLATGLNNGRIKIWDVYTGKLLLNLVDHTEVVRDLTFAPDGSLILVSASRDKTLRVWDLKDDGNMMKVLRGHQNWVYSCAFSPDSSMLCSVGASKAVFLWNMDKYTMIRKLEGHHHDVVACDFSPDGALLATASYDTRVYIWDPHNGDILMEFGHLFPPPTPIFAGGANDRWVRSVSFSHDGLHVASLADDKMVRFWRIDEDYPVQVAPLSNGLCCAFSTDGSVLAAGTHDGSVYFWATPRQVPSLQHLCRMSIRRVMPTQEVQELPIPSKLLEFLSYRI

Reference: patent US20160326532A1 (MAYO FOUNDATION FOR MEDICAL EDUCATION AND RESEARCH, published 2016)
